From the supplement of paper PMC10126150
± gives the standard deviation of the averaged measurements.

tested on: ATP; assay: switch fluorescence ratio, 500 uM ATP over buffer (Cy3 cluster intensity, sum of 5 cycles each) (fold (ratio)); higher = stronger signal-on switching upon ATP binding; sequences stand for … in TCGTCGGCAGCGTCAGATGTGTATAAGAGACAGTTTTTTTTTTTTTTTTTTTTTTTTT…TC; conditions: aptamer strand: ATP DNA aptamer (quencher-CACCTGGGGGAGTATTGCGGAGGAAGG + anchor), 100 nM annealed; ATP concentration: 500 uM
How it was run: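 Imaging in selection buffer was followed by imaging after 15 min with 500 uM ATP at 22 °C, for Cy3-labelled switching-strand clusters annealed to 100 nM quencher-labelled ATP aptamer on a modified Illumina MiSeq flow-cell. Five of these buffer/ATP cycles ran, separated by NaOH stripping and re-annealing. The fluorescence ratio per cluster is summed target-cycle over summed buffer-cycle Cy3 intensity, averaged per switch-domain sequence; clusters outside 100-1000 RFU were removed.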
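Note: ATP exposure 15 min at 22 °C before imaging.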

Sequence	switch fluorescence ratio
ATAAATTGCG	0.9931 ± 0.0086
TGGAGTAGGA	1.04 ± 0.051
CCTAACCTCT	1.01 ± 0.032
AGCTTTAGGG	0.9905 ± 0.0022
TGGGTTTGTA	0.984 ± 0.019
GTGTTAGTAT	1.02 ± 0.031
ATTTATGTTG	1.01 ± 0.031
TCTTTATGTG	0.998 ± 0.016
TGGATGGGGT	0.973 ± 0.027
GGGTTTGAGC	0.981 ± 0.033
AGTATCACAG	0.9621 ± 0.0047
GGGGGGTTAC	1.42 ± 1
ATTGGATTTT	1 ± 0.028
ATGAATTCTC	1.01 ± 0.078
ATTTGAGAGC	0.987 ± 0.017
AAGTGGTCAC	1.01 ± 0.029
ACACGATGGG	1 ± 0.019
GTGATTTGGG	1.01 ± 0.0076
TGTATTTTGT	0.976 ± 0.022
ACTTAGGTAA	1.01 ± 0.024
GGGTTATGCT	0.99 ± 0.046
GTGAATTTGT	1.09 ± 0.15
TTCGGAACGG	0.991 ± 0.027
GTAACGGGGC	0.982 ± 0.049
GCATTAATG	1.03 ± 0.021

Sequence	switch fluorescence ratio
TATTTAAAAA	1.01 ± 0.035
AGGGGTGTGG	1.01 ± 0.017
AGTATAGAGT	1.01 ± 0.037
GACCGCAGCA	4.22 ± 0.49
TTTTACGGGA	1.26 ± 0.41
TATTGGTCTA	1.04 ± 0.087
GAGATAAGAG	1.01 ± 0.022
TTGACCTGTG	1.02 ± 0.013
TTGAAGTCGT	0.988 ± 0.02
GGGCTAAAAC	0.971 ± 0.035
CCATTTTTTG	0.993 ± 0.028
TAGCCTATTG	0.979 ± 0.038
TCGTCCGAAG	1.45 ± 0.04
TTAATAGCGT	0.999 ± 0.029
TCGATCGCAT	2.51 ± 2.2
CGGAGACCGT	1 ± 0.022
ATGTTGAAGC	0.9619 ± 0.0078
CAGGGGAAAC	1.02 ± 0.077
TACATATCTT	1.01 ± 0.025
CCTGGATTGC	1.24 ± 0.093
GCGGATGGCA	1 ± 0.038
TGCTCTTAGT	1.04 ± 0.079
TGTAAGGGGT	1.06 ± 0.085
ATTGTCTTGA	0.9688 ± 0.0015
AAAAGTTGGT	1.02 ± 0.083

Sequence	switch fluorescence ratio
GGGGCTATAA	1.11 ± 0.067
TTGAGGACGG	1.03 ± 0.016
AGTAAGAGCA	1.01 ± 0.011
GGGGTTGACG	0.964 ± 0.059
GAAATCACTC	1.15 ± 0.13
GCGTTTCGGG	0.968 ± 0.018
GTATGACGTA	0.968 ± 0.037
AAATTTAGGT	1.01 ± 0.038
TGTTAAGGGG	1.18 ± 0.21
CAACTATTGC	1.04 ± 0.036
CAGATGTTTT	0.987 ± 0.052
GTTGTGAATA	0.994 ± 0.028
CTCTGGGGTA	1.05 ± 0.031
GTTTTTCAGG	1 ± 0.017
CGTAAGACGT	1.03 ± 0.044
GAAGGGCGCG	1.029 ± 0.0034
GCAGGTATTG	1.02 ± 0.012
CGGGGATTAG	0.994 ± 0.017
TGACGAGGTG	0.9816 ± 0.0051
TGCACATGGG	1.02 ± 0.015
TCGTTAGATG	0.989 ± 0.023
ACTGCCGGTC	1.04 ± 0.041
TCCTGTTTTC	0.987 ± 0.021
AAGAGGTTTT	1.01 ± 0.02
AACGTGTTTT	1.042 ± 0.006

Sequence	switch fluorescence ratio
TTGGTTGAAA	1.01 ± 0.013
TTAAAACCGT	1.02 ± 0.029
TTTGAGAGTT	1.03 ± 0.058
TGTAAAAGGT	1.04 ± 0.092
GTGTAATAGT	0.996 ± 0.021
TTAAGCGTTT	0.9948 ± 0.009
TACTTTAGCT	1.109 ± 0.0069
TTGGGGAGAC	1.07 ± 0.061
GGTATTCGGC	1.01 ± 0.017
ACTCGGGGGC	1.09 ± 0.23
TAAACTGACG	1.03 ± 0.051
TAGGCTCGGG	0.99 ± 0.038
TATTCCTCTG	2.03 ± 0.26
TATTTTTAAA	1.02 ± 0.028
TAAGCGGCGG	1 ± 0.036
CTGTAACGTT	1.015 ± 0.0015
ACGGACATCT	1.28 ± 0.022
CCGGGTGGG	1.01 ± 0.062
GGGGGAAATG	0.994 ± 0.029
TTTTTCATAT	1.08 ± 0.2
TTCTAGTGGG	1 ± 0.033
GGGGGGCTGA	0.982 ± 0.018
GAAAAAGAGG	0.985 ± 0.019
AACGGAACTA	1.15 ± 0.019
GAGGGCCGCG	0.997 ± 0.051

Sequence	switch fluorescence ratio
TCAGACTCAG	0.992 ± 0.021
GGTTCAGAGA	0.973 ± 0.033
ATTGAGTCAC	0.991 ± 0.016
CGTTGACGCG	1.02 ± 0.016
GCAATCAATA	1.02 ± 0.015
AGGGTTATGC	0.984 ± 0.031
TGTGGGTTTT	1.02 ± 0.056
AGATTGCCGG	0.97 ± 0.034
ATGGGGATGT	1.03 ± 0.079
ATGAGGGG	1.01 ± 0.043
TGGCGGAAGG	0.999 ± 0.044
AGGCTTGATG	0.972 ± 0.033
AAGACGGGGA	0.974 ± 0.023
TGCTGGGGCT	0.9847 ± 0.0033
GGAATTTGGC	1.02 ± 0.052
ACATCGGCTT	0.998 ± 0.015
GAAGAAAATT	1.01 ± 0.014
CGGAAGCGTG	0.984 ± 0.016
CATCTGTTGT	0.9856 ± 0.0092
TACGGGGTCT	1.04 ± 0.037
GAAATAGGTA	0.988 ± 0.013
TTAAAGACCT	1.45 ± 0.042
TGGAGGAGGA	0.982 ± 0.025
ATTCGACAGA	1.02 ± 0.016
GCGAGTACCG	1.02 ± 0.032

Sequence	switch fluorescence ratio
GGGTACCGAC	1.08 ± 0.036
ATGATGATGG	0.9858 ± 0.0096
GAAAAAGGCC	1.02 ± 0.011
CATGGTGAGC	0.956 ± 0.041
TTTGGCATGG	1.024 ± 0.0073
GTAGGGGGCG	1.01 ± 0.017
TGGAAGGGGG	1.01 ± 0.051
CAGTGGGTGG	0.982 ± 0.027
CGTTATATTC	1.08 ± 0.031
GCCTCCAGTT	1.15 ± 0.025
CAAAGTTAGG	0.97 ± 0.013
ACTGTGTTTT	0.972 ± 0.015
ATGCCGGGGT	1.05 ± 0.013
TAGGGTAATT	0.9965 ± 0.0041
CGACATCGCA	1.321 ± 0.0068
TGGGTGAGAT	1.01 ± 0.032
ATGCCTGGGT	0.999 ± 0.034
TTAGGTTAGG	0.9765 ± 0.0064
CTCAGGGGAG	1.03 ± 0.047
AATGTGGGTC	0.9392 ± 0.006
GTGCCATGTT	0.9816 ± 0.0083
CGGTATATTT	0.9712 ± 0.0058
TTAGGGGGTG	1.01 ± 0.025
AAACCGACAT	1.27 ± 0.03
TTGATTGTGG	1.03 ± 0.059

Sequence	switch fluorescence ratio
TTGAATAGTT	0.998 ± 0.017
GCGGGGGAAC	1.018 ± 0.0055
TCACGGGGGG	1.08 ± 0.1
TTTGTGGGA	0.997 ± 0.021
TTTGTAGTAT	1.03 ± 0.1
CTAGTGGTGA	0.972 ± 0.015
GCCTTGGGAA	1.02 ± 0.028
AAAATGTTTT	1.02 ± 0.031
CTCGCTCGGT	1.01 ± 0.019
CCCCTGGAAT	1.08 ± 0.03
TTCAGAGTTT	0.978 ± 0.014
GTAAGTGAAG	1.05 ± 0.014
TCATGGGGTG	1.05 ± 0.07
TCCTTTGGTT	0.9865 ± 0.0034
AGATGAGGGA	1.02 ± 0.032
AGTCCCAAGG	1.13 ± 0.2
GTTGACGGGG	1.01 ± 0.021
TAATTTTTG	0.9976 ± 0.0011
TGAGCTGCGT	1.01 ± 0.022
TTAAATAAGT	1 ± 0.025
TAATATGTTC	1 ± 0.037
CTGGAGGTTG	0.998 ± 0.041
TTTCTATATA	1 ± 0.052
TGTGTAAGGG	1.02 ± 0.029
TGGTTGGT	0.9755 ± 0.0095

Sequence	switch fluorescence ratio
AAGTGAGGGT	0.996 ± 0.036
AGCGACGTTT	0.9647 ± 0.0064
CGGGCATTGT	1.01 ± 0.051
CGCGGGTTGA	1.053 ± 0.0094
CCTAGGGCGG	1.006 ± 0.0011
TCTTTTCTTT	1.04 ± 0.043
AATTCAATGA	1.01 ± 0.045
GGAGTATAAG	0.957 ± 0.012
TCATATGTTG	1.018 ± 0.0036
AATTAGCTGA	1.01 ± 0.029
GCTTTTCGAT	0.994 ± 0.035
TTATAAATTT	1.29 ± 0.45
TATACTATTG	1.01 ± 0.048
TGGTTAGTTT	0.997 ± 0.016
TAACGAGTCT	1.01 ± 0.029
AGCAAGGGGG	1.09 ± 0.11
GATTTATCGC	1 ± 0.046
CCTTGAAAGG	1 ± 0.011
GGGAATTACT	1.87 ± 1.1
TTTTTCGCCT	1.01 ± 0.029
TTCAGGGATG	0.9822 ± 0.0028
CCCAGTATGG	1.001 ± 0.0082
ACCGACGGGA	2.72 ± 2
CAATTCATTA	1.02 ± 0.02
CACCAGGGCT	1.6 ± 0.051
